For assay [1], the target named is T1, Mg1LysM (Zymoseptoria tritici, UniProt F9XHX3).
T1 construct: mature single-LysM effector, signal peptide absent; ITC: E. coli Origami pET-SUMO, His-SUMO cut off by ULP1; crystal: P. pastoris GS115, His-FLAG tag; ligand-independent homodimer; chitin site formed by two protomers of neighbouring homodimers
Put plainly: X-ray crystal structure of the complex ([…] Å). The class given is binding. As to conditions: P. pastoris-produced protein; ligand co-purified from host cell wall; site between two protomers of neighbouring homodimers.

Assay [2] addresses (GlcNAc)6. The experiment in a line: ITC. (In ITC the heat of successive injections is recorded.)

With `CC(=O)N[C@H]1[C@H](O[C@H]2[C@H](O)[C@@H](NC(C)=O)C(O)O[C@@H]2CO)O[C@H](CO)[C@@H](O[C@@H]2O[C@H](CO)[C@@H](O)[C@H](O)[C@H]2NC(C)=O)[C@@H]1O` (stereo partly shown) [chitin trimer], the “X-ray crystal structure of the complex (2.41 Å)” value in assay [1] is reported as “well-defined electron density for a single chitin trimer bound to one monomer of the a.u”.

In assay [2], “Mg1LysM (Zymoseptoria tritici LysM effector), wild type, produced in E. coli (from UniProt A0A1X7S147) T28R” returned an other: stoichiometry N of 0.956.

Take “Mg1LysM (Zymoseptoria tritici LysM effector), wild type, produced in E. coli (from UniProt A0A1X7S147) D54A”: the other: stoichiometry N in assay [2] was determined as 0.902.

“Mg1LysM (Zymoseptoria tritici LysM effector), wild type, produced in E. coli (from UniProt A0A1X7S147) K31A” showed an other: stoichiometry N in assay [2] of 0.97.

For the origin of these results see article PMC7337405, “A secreted LysM effector protects fungal hyphae through chitin-dependent homodimer polymerization” (PLoS Pathogens, 2020).
